Here are results for 2 molecules from US20150166643A1 (Alexion, published 2015).

Experiment [1] deals with T1, human factor B (purified, Complement Technology A135) (human, UniProt P00751 26-764).
T1 construct: also called fB; human complement factor B
The experiment is described as follows: BLI (Octet), mAb on anti-human Fc biosensor, 25 nM human factor B. The procedure:
(§1) Binding kinetics of TA106-originated mAbs were analyzed using a FortéBio® Octet® biosensor (FortéBio, Inc.) in a similar protocol as described previously. In one exemplary experiment, wild type (CLS011) and the variant S33A (CLS013) mAbs were captured on anti-human Fc biosensors at a concentration of 5 μg/mL, diluted in 1× kinetics buffer (KB, a proprietary formulation containing PBS/Tween). Capture (loading) was carried out for 400 seconds, followed by briefly dipping the biosensors in 1×KB as a wash for 30 seconds. Associations with a titration series of purified human Factor B (Complement Technology, Tyler, Tex.), which concentrations range from 50 to 3 nM (diluted in 1×KB), were carried out for 300 seconds.
In general terms: Biolayer interferometry detects binding as a change in optical thickness at a sensor tip.

Experiment [2] concerns the target T1, human factor B (purified, Complement …). The experiment can be described thus: cell-based or functional assay.
Experiment [3] shares this target. The experiment can be described thus: SPR (Biacore 3000), mAb captured by anti-Fc antibody on CM5 chip, soluble human factor B 3.1-200 nM. From the text:
(§2) Binding kinetics of mAbs were further characterized using Biacore's Surface Plasmon Resonance (SPR) technology (GE Healthcare, Piscataway, N.J.). For a detailed description of SPR and its applications in affinity measurement, please see Karlsson and Larsson, Antibody Engineering: Methods and Protocols, Methods in Molecular Biology (2003), 248: 389-415. In one exemplary experiment, TA106 Fab and derivative mAbs were captured on chips of a Biacore 3000 analyzer and samples of human factor B of different concentrations were flowed as the antigen over the surface to model soluble human factor B binding, using protocols recommended by the manufacturer (e.g., in the product brochure #BR-9003-31). All these referenced publications are hereby incorporated by reference in their entirety. […] Fab TA106 (Xoma, Lot#TTA1007, 20 mg/mL) was then flowed over one flow cell, followed by injections of human factor B on both flow cells. Concentrations (factor B) between 3.1-200 nM were run. The surface was regenerated between each cycle. […] The affinities of mAbs, i.e., CLS011, CLS012, and CLS013, were determined using a similar capture approach. In one exemplary experiment, human anti-Fc antibody was amine coupled to two flow cells of a CM5 chip. Each of the TA106-originated mAbs was then flowed over one flow cell, followed by injecting human factor B (3.1-200 nM) on both flow cells. […]
Background: In SPR one partner is held on a chip, and binding of the other changes the refractive index at the surface.

Experiment [4] has the same target. The experiment can be described thus: BLI (Octet), mAb on anti-human Fc biosensor, 50 nM human factor B. The procedure:
as §1

Experiment [5] has the same target. The experiment can be described thus: SPR, captured mAb, soluble factor B (summary table).
Source text: as §2

Experiment [6] has the same target. The experiment is described as follows: BLI (Octet), mAb on anti-human Fc biosensor, 12.5 nM human factor B. The procedure:
as §1

The target is the same in experiment [7]. The experiment can be described thus: SPR (Biacore), CLS011 captured on anti-Fc surface, soluble factor B 3.1-100 nM flowed; Chi2 0.283.
Source text: as §2

Experiment [8] shares this target. The experiment can be described thus: ELISA, human factor B coated at 0.5 ug/mL, detection with sheep anti-human kappa light chain HRP, abs 450 nm against nM antibody. How it is done: The binding activities of these mAbs towards factor B were analyzed by ELISA using standard protocols. In one exemplary experiment, MaxiSorp™ ELISA plates (Nunc, #439454, Rochester, N.Y.) were coated with 50 μL of human factor B (Complement Technology, A135, 1 mg/mL, lot 14c) at a concentration of 0.5 μg/mL in carbonate coating buffer (0.795 g carbonate+1.46 g bicarbonate+1 mL 1% NaN₃ (final concentration of 0.002%) in 500 mL water, pH 9.6 (lot 02 August 10)). Plates then were covered with plate sealers and incubated at 37±1° C. for one hour. Following coating, wells were emptied of reagent and washed in a BioTek® ELx405 plate washer (BioTek, Winooski, Vt.) for three times with 200 μL wash solution (PBS/0.05% Tween 20) per well. Following washes, wells were blocked with 100 μL of BSA (1% w/v) and incubated for one hour at room temperature. Wells were then washed again as described above. Fifty microliter samples (i.e., TA106 Fab, CLS011 mAb, CLS012 mAb, and CLS013 mAb) were then added to wells and incubated for one hour at room temperature. […] The plate was read on a Benchmark™ microplate reader (Bio-Rad Laboratories, Hercules, Calif.) at 450 nm. Standard curves were plotted with 4 parameter fit with DeltaSoft® 1.6 software, and sample concentrations were determined from the standard curves.

Experiment [9] shares this target. The experiment can be described thus: SPR (Biacore), CLS013 captured on anti-Fc surface, soluble factor B 3.1-100 nM flowed; Chi2 1.05.
Source text: as §2

T1 sequence (P00751 26-764): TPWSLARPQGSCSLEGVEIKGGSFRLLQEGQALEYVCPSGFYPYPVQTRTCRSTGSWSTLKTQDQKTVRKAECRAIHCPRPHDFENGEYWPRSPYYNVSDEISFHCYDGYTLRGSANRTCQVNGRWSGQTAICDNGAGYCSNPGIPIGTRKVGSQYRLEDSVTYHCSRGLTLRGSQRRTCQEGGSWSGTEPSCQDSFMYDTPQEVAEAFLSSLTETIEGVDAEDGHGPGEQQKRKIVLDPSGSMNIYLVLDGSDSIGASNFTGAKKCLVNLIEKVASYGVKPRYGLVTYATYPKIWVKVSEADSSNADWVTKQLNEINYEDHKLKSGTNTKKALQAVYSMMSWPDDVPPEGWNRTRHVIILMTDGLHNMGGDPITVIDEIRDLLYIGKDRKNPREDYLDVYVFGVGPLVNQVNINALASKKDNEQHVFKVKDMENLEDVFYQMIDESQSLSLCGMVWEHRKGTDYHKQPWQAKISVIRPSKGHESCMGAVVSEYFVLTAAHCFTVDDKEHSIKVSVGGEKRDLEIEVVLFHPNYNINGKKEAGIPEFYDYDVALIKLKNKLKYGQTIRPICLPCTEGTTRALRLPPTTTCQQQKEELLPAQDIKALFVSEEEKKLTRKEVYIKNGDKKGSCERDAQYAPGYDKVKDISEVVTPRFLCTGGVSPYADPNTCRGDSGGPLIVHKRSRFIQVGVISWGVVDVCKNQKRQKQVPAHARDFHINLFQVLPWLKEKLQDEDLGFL

B1: CLS011 (TA106-derivative full-length IgG2/4 mAb, wild type light chain, expressed in CHO cells) (antibody, V domains shown)
VH: EVQLVQSGAEVKKPGASVKVSCKASGYSFTDYYMTWVRQAPGQGLEWMGWINPNSGGTKYAQKFQGRVTMTRDTSISTAYMELSRLRSDDTAVYYCARGYYANSAWFAYWGQGTLVTVSS
VL: DIVMTQSPDSLAVSLGERATINCKSSQSLLNSSTSKNYLAWYQQKPGQPPKLLIYWASTRESGVPDRFSGSGSGTDFTLTISSLQAEDVAVYYCKQVYNLPWTFGQGTKLEIKR
modifications: N-linked glycans on the N31-S32-S33 motif of CDR1; N-linked glycans on the heavy chain (possibly at N296)
notes: Human IgG2/4 full-length mAb; also called CLS011 mAb; TA106-derivative mAb
Take B1: the Kd in experiment [1] was 17.3 nM; in experiment [3], around 15.4 nM; in experiment [4], 24.9 nM; in experiment [5], 15 nM; in experiment [6], 11.1 nM. For the same molecule, the koff came out at 0.00297 s⁻¹ in experiment [1], 0.00418 s⁻¹ in experiment [4], 0.00289 s⁻¹ in [6] and 0.00253 s⁻¹ in [7]. In addition, the kon in experiment [1] worked out at 171000 M⁻¹ s⁻¹; in [4], 168000 M⁻¹ s⁻¹; in experiment [6], 261000 M⁻¹ s⁻¹; in experiment [7], 165000 M⁻¹ s⁻¹. The “IC50 (read off the curve); lysis of rabbit red blood cells in 10% normal human serum” value in experiment [2] is around 50 nM.

B2: CLS013 (TA106-derivative S33A variant, full-length IgG2/4 mAb, expressed in CHO cells) (antibody, V domains shown)
VH: EVQLVQSGAEVKKPGASVKVSCKASGYSFTDYYMTWVRQAPGQGLEWMGWINPNSGGTKYAQKFQGRVTMTRDTSISTAYMELSRLRSDDTAVYYCARGYYANSAWFAYWGQGTLVTVSS
VL: DIVMTQSPDSLAVSLGERATINCKSSQSLLNSATSKNYLAWYQQKPGQPPKLLIYWASTRESGVPDRFSGSGSGTDFTLTISSLQAEDVAVYYCKQVYNLPWTFGQGTKLEIKR
modifications: N-linked glycans on the heavy chain
notes: Human IgG2/4 full-length mAb; also called CLS013 mAb; TA106 variant S33A
Consider B2, for which the Kd in [1] was 52.2 nM; in experiment [3], around 17.6 nM; in [4], 32.1 nM; in experiment [5], 18 nM; in experiment [6] it was 37.7 nM. For the same molecule, the koff in experiment [1] is 0.00472 s⁻¹; in experiment [4] it was 0.00504 s⁻¹; in [6], 0.00428 s⁻¹; in experiment [9] it was 0.00311 s⁻¹. Also, the kon in experiment [1] was determined as 90300 M⁻¹ s⁻¹; in experiment [4], 157000 M⁻¹ s⁻¹; in experiment [6], 114000 M⁻¹ s⁻¹; in [9], 177000 M⁻¹ s⁻¹. The “IC50 (read off the curve); lysis of rabbit red blood cells in 10% normal human serum” value in experiment [2] is around 20 nM. For the same molecule, the “EC50 (read off the curve)” value in experiment [8] is around 0.4 nM.

As a reminder, the Kd is a measure of binding affinity in units of concentration. Read a low Kd as higher affinity. The term koff denotes the rate constant with which the complex falls apart. A higher koff goes with a short-lived complex. As usually defined, the kon is the second-order rate constant of association. As a reminder, the EC50 (read off the curve) is the concentration needed to bring the measured effect to its halfway point. Read a low EC50 (read off the curve) as greater potency.
